Laboratory results published in patent US20230265192A1.

How the values were obtained:
Assay in all cases: cell-based or functional assay
[1] = target: human FcγRIIa, high-affinity H131 variant, on Jurkat/NFAT-Luc effector cells (human) (UniProt P12318)
[2] = target: human FcγRIIa, low-affinity R131 variant, on Jurkat/NFAT-Luc effector cells (human) (UniProt P12318)
[3] = target: human FcγRIIb on Jurkat/NFAT-Luc effector cells (human) (UniProt P31994)
[4] = target: mouse FcγRIII on Jurkat/NFAT-Luc effector cells (mouse) (UniProt P08508)
[5] = target: mouse FcγRIV on Jurkat/NFAT-Luc effector cells (mouse)
mouse FcγRIV on Jurkat/NFAT-Luc effector cells (mouse), sequence (A0A0B4J1G0 21-203): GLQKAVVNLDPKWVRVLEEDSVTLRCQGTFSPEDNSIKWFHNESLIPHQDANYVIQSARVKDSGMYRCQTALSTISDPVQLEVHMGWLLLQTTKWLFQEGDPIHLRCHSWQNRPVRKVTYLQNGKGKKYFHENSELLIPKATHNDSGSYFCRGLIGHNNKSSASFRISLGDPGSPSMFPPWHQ

human FcγRIIa, high-affinity H131 variant, on Jurkat/NFAT-Luc effector cells (human), sequence (P12318 34-317, change not shown): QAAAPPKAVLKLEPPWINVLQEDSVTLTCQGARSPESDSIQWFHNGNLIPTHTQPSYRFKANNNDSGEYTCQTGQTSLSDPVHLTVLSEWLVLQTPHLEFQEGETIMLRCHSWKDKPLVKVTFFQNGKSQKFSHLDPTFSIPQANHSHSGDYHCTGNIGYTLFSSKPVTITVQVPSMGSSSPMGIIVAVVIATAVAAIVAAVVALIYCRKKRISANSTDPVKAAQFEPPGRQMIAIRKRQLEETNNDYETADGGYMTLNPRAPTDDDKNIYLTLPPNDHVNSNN
human FcγRIIb on Jurkat/NFAT-Luc effector cells (human), sequence (P31994 43-310): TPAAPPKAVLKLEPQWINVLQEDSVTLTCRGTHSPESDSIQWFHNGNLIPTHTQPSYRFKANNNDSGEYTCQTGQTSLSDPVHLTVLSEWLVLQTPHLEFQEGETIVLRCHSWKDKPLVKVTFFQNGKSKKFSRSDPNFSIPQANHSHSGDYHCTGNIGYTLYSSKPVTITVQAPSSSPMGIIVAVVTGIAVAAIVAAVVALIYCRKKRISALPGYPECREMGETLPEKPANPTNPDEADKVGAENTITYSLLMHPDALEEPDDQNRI
human FcγRIIa, low-affinity R131 variant, on Jurkat/NFAT-Luc effector cells (human), sequence (P12318 other isoform, or with tags, fused parts or gaps mutant limits assumed): as the sequence (P12318 34-317, change not shown) above, with H134R counted along it
mouse FcγRIII on Jurkat/NFAT-Luc effector cells (mouse), sequence (P08508 31-261): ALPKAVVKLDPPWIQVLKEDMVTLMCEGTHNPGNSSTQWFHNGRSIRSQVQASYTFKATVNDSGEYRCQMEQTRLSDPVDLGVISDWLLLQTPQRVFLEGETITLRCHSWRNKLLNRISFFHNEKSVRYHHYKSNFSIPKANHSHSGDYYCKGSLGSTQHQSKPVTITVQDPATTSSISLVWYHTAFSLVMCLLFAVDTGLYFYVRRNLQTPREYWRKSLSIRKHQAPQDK

EC50 (µg/mL), FcR reporter bioassay [1]: 0.05 µg/mL
Maximum luminescence (RLU), FcR reporter bioassay [1]: 973 RLU
EC50 (µg/mL), FcR reporter bioassay [2]: 0.21 µg/mL
Maximum luminescence (RLU), FcR reporter bioassay [2]: 2640 RLU
EC50 (µg/mL), FcR reporter bioassay [3]: 0.17 µg/mL
Maximum luminescence (RLU), FcR reporter bioassay [3]: 5800 RLU
Maximum luminescence (RLU), FcR reporter bioassay [4]: 17500 RLU
EC50 (µg/mL), FcR reporter bioassay [5]: 2.21 µg/mL
Maximum luminescence (RLU), FcR reporter bioassay [5]: 990 RLU
Substance: Ipilimumab (antibody)
